Data published in IntAct's records for PubMed 15156152.

B1: Integrin beta-5 (Homo sapiens), P18084 (parent)
chain: MPRAPAPLYACLLGLCALLPRLAGLNICTSGSATSCEECLLIHPKCAWCSKEDFGSPRSITSRCDLRANLVKNGCGGEIESPASSFHVLRSLPLSSKGSGSAGWDVIQMTPQEIAVNLRPGDKTTFQLQVRQVEDYPVDLYYLMDLSLSMKDDLDNIRSLGTKLAEEMRKLTSNFRLGFGSFVDKDISPFSYTAPRYQTNPCIGYKLFPNCVPSFGFRHLLPLTDRVDSFNEEVRKQRVSRNRDAPEGGFDAVLQAAVCKEKIGWRKDALHLLVFTTDDVPHIALDGKLGGLVQPHDGQCHLNEANEYTASNQMDYPSLALLGEKLAENNINLIFAVTKNHYMLYKNFTALIPGTTVEILDGDSKNIIQLIINAYNSIRSKVELSVWDQPEDLNLFFTATCQDGVSYPGQRKCEGLKIGDTASFEVSLEARSCPSRHTEHVFALRPVGFRDSLEVGVTYNCTCGCSVGLEPNSARCNGSGTYVCGLCECSPGYLGTRCECQDGENQSVYQNLCREAEGKPLCSGRGDCSCNQCSCFESEFGKIYGPFCECDNFSCARNKGVLCSGHGECHCGECKCHAGYIGDNCNCSTDISTCRGRDGQICSERGHCLCGQCQCTEPGAFGEMCEKCPTCPDACSTKRDCVECLLLHSGKPDNQTCHSLCRDEVITWVDTIVKDDQEAVLCFYKTAKDCVMMFTYVELPSGKSNLTVLREPECGNTPNAMTILLAVVGSILLVGLALLAIWKLLVTIHDRREFAKFQSERSRARYEMASNPLYRKPISTHTVDFTFNKFNKSYNGTVD

Variants of: B1
Settings: with myo10_mouse Myo10, F8VQB6
Chain of myo10_mouse Myo10, F8VQB6 (F8VQB6 whole entry): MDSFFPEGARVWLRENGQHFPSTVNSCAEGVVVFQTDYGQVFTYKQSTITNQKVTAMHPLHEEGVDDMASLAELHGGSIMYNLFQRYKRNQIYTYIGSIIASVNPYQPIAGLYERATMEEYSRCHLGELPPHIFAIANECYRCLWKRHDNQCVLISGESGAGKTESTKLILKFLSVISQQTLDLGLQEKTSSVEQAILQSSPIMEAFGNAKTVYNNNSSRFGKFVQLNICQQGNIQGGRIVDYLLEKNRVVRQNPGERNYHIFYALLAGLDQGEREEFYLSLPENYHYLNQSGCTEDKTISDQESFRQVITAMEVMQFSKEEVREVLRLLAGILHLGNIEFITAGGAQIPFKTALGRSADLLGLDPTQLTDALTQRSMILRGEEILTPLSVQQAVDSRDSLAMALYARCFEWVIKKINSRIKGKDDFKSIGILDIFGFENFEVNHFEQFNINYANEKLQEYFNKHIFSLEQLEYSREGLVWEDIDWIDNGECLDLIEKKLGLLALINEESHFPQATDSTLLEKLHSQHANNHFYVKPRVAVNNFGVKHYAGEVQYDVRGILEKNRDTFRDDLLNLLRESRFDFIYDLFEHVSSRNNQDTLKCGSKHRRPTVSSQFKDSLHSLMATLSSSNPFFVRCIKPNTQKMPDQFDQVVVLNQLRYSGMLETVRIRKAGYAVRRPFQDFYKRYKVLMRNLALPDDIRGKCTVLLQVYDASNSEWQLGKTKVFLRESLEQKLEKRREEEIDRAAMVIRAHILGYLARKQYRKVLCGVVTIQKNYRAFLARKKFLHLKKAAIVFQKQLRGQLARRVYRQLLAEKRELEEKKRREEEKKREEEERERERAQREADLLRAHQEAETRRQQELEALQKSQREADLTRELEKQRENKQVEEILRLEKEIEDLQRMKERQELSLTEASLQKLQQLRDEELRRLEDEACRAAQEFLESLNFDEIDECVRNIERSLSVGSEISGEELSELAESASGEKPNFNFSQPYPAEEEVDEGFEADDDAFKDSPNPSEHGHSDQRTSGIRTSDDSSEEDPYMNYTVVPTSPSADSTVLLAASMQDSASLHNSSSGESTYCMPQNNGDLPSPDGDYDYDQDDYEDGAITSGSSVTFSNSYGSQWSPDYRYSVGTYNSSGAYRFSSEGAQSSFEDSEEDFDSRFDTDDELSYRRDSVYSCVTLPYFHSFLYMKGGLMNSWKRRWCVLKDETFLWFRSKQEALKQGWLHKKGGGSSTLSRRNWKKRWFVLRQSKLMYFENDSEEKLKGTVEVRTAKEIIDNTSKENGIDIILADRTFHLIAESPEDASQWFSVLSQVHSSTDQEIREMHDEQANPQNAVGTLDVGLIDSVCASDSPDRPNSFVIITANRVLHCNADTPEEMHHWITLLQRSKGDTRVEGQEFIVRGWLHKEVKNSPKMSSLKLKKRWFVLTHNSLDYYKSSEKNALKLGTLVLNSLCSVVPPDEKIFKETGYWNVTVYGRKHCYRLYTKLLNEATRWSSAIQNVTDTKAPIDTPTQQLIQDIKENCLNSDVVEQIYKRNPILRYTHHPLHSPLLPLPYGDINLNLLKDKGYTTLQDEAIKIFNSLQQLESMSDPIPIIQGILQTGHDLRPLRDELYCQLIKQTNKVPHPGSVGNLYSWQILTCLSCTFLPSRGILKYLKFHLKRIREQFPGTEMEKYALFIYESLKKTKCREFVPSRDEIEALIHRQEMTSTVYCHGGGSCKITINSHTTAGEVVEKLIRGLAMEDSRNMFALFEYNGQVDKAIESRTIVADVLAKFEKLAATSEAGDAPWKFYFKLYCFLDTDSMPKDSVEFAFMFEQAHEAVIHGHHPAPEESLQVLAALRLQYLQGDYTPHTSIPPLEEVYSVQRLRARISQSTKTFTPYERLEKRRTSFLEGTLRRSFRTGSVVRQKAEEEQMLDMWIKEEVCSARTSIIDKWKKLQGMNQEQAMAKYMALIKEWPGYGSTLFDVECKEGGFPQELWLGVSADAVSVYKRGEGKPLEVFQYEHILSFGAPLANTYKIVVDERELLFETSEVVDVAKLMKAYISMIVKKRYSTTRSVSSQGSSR

Row | Variant | effect of a mutation on the interaction
1 | Y774A | disrupting interaction
2 | L773A | decreasing interaction
3 | P772A | disrupting interaction

Variants of: B1
Settings: with myo10_bovin MYO10, P79114
Chain of myo10_bovin MYO10, P79114 (P79114 whole entry): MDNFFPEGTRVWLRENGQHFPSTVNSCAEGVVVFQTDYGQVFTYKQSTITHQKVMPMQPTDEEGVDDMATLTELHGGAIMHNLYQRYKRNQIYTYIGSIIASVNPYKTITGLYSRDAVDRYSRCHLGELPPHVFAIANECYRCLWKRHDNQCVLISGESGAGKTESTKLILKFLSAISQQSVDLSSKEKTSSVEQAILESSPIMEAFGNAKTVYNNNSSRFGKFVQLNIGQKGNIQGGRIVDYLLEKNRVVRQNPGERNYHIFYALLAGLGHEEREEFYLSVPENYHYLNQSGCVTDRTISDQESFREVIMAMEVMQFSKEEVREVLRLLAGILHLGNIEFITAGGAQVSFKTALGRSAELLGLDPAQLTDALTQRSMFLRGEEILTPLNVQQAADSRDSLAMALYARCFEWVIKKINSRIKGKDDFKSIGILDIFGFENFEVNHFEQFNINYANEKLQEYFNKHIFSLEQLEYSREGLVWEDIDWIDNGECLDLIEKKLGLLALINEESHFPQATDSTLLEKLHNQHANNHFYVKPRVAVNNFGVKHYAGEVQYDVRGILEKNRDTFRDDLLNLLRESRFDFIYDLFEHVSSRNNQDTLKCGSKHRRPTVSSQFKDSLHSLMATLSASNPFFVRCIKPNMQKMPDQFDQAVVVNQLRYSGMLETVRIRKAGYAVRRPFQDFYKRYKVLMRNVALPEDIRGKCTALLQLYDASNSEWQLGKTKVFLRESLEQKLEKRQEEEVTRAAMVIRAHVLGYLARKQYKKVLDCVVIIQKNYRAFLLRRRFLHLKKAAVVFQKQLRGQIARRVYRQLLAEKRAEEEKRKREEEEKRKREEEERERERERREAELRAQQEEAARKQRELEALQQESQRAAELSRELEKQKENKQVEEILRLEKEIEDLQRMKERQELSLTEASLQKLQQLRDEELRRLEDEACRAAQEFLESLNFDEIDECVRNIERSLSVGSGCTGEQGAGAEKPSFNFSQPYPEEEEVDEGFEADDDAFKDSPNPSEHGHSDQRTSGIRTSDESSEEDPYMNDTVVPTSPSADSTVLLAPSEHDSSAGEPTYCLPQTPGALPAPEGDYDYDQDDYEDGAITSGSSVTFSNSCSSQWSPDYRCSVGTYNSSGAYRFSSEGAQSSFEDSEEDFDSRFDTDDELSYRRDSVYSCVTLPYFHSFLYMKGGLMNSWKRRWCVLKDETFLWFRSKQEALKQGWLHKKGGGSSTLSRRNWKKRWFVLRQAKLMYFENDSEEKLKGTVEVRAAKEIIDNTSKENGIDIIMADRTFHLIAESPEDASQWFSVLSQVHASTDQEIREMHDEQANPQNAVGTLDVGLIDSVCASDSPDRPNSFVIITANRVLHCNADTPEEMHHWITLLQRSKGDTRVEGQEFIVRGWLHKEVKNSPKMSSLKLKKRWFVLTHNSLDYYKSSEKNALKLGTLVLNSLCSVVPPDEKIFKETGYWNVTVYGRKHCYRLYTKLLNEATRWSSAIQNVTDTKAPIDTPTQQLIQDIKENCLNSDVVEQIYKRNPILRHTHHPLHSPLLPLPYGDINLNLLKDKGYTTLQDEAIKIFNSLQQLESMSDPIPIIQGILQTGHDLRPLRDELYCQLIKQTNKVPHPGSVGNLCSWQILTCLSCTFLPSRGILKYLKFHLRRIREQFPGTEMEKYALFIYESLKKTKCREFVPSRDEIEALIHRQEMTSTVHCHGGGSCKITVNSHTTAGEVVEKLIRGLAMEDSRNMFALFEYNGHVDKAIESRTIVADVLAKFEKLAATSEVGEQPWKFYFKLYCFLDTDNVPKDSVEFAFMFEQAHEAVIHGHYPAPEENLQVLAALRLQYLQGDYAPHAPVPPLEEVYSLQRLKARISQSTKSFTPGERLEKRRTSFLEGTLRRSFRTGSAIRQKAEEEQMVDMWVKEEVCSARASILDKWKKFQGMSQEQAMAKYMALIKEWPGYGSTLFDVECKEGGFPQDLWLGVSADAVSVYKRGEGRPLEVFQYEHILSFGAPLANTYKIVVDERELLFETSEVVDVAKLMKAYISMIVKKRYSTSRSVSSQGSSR

Row | Variant | effect of a mutation on the interaction
4 | P772A | disrupting interaction
